Reference: patent US20250051465A1 (published 2025)

T1: full length human LEPR on cells (human, UniProt P48357 22-1165)
T1 sequence: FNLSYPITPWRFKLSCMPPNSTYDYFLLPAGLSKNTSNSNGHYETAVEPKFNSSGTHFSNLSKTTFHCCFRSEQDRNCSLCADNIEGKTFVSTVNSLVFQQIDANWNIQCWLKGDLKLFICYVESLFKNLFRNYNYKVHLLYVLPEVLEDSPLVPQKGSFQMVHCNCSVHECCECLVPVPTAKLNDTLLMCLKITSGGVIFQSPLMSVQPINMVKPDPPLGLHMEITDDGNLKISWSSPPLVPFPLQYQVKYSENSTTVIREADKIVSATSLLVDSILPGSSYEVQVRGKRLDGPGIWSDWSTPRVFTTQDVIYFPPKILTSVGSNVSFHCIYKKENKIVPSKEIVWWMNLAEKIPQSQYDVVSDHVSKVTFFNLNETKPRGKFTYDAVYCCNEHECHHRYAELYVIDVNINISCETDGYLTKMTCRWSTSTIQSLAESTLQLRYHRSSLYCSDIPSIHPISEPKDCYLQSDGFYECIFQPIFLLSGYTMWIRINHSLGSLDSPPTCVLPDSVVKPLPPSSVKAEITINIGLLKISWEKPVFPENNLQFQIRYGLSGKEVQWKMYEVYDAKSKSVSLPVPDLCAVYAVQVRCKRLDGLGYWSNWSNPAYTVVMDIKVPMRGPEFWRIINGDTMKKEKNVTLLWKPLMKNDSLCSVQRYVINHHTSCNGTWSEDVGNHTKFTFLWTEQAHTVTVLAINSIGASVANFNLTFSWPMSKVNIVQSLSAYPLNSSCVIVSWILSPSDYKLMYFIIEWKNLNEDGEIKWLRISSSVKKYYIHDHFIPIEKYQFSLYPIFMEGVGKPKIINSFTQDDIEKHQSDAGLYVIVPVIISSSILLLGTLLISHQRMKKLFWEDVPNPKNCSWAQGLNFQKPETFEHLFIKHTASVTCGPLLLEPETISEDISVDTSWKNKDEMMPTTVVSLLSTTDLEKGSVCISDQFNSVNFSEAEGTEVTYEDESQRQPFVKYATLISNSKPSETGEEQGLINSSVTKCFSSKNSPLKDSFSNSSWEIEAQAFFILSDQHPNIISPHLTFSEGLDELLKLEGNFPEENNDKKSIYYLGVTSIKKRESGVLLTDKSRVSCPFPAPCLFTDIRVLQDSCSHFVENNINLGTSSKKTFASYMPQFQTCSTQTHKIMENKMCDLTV

B1: H4H18445P2 (antibody, human IgG4, V domains shown)
VH: QVQLQESGPGLVKPSQTLSLTCTVSGGSISSGGDYWSWIRQLPGKGLEWIGYIYYSGSAYYNPSLKSRGTISIDTSKNQFSLKLTSVTAADTAVYFCVKLRFLEWFLGGWFGPWGQGTLVTVSS
VL: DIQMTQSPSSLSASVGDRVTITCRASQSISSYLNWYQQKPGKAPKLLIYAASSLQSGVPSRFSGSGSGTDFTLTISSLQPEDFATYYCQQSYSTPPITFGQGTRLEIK
notes: Fully human antibody with human IgG4 Fc (H4H prefix)
B2: H4H18438P2 (antibody, human IgG4, V domains shown)
VH: QVQLVESGGGVVQPGRSLRLSCAASGFSFNTYGMHWVRQAPGKGLEWVTIIWYDGSIKYYADSVKGRFTISRDNSKNTLYLQMNSLRAEDTAVYYCARGGYSGYLYFDYWGQGTLVTVSS
VL: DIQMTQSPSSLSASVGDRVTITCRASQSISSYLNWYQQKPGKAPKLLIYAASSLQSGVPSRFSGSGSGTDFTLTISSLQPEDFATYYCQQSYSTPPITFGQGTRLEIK
notes: as for B1
B3: H4H16679P2 (antibody, human IgG4, V domains shown)
VH: QVQLVESGGGVVQPGRSLRLSCTASGFTFSSYAMYWVRQAPGKGLEWVSVIYYDGSYKYYADSVKGRFTISRDNSKNTLYLQMDSLRAEDTAVYYCASYNWNYWYFDFWGRGTLVTVSS
VL: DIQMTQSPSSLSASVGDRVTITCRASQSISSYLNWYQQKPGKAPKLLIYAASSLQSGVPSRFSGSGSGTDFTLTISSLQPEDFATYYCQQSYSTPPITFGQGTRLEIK
notes: as for B1
B4: H4H17321P2 (antibody, human IgG4, V domains shown)
VH: QVQLVESGGGVVQPGRSLRLSCEASGFSSSDNAMYWVRQAPGKGLEWVSVIYHDGSYKYYEDSVKGRFTIARDNSKNTLYLQMNSLRAEDTAVYYCARYNWNHWYFDVWGRGTLVTVSS
VL: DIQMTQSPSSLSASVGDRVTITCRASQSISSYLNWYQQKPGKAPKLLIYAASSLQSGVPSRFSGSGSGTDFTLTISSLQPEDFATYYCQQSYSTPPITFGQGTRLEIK
notes: as for B1
B5: H4H18417P2 (antibody, human IgG4, V domains shown)
VH: QVQLVESGGGVVQPGRSLRLSCAASGFTFSTYGMHWVRQAPGKGLEWVSVISYDESNKYYADSVKGRFTISRDNSKNALYLQMNSLRNEDTAVYYCARDRPFGLVTGWFDPWGQGTLVTVSS
VL: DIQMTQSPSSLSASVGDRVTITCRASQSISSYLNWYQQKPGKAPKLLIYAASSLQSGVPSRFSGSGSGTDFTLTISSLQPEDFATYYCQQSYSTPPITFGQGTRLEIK
notes: as for B1
B6: H4H17319P2 (antibody, human IgG4, V domains shown)
VH: QVQLVESGGSVVQPGRSLRLSCAASGFTFSTYAMYWVRQTPGKGLEWVAVLYSDGSNKYYIDSVKGRFTISRDTSTNTLYLQMSSLRADDSALYYCARLNWDYWYFDLWGRGTLVTVSS
VL: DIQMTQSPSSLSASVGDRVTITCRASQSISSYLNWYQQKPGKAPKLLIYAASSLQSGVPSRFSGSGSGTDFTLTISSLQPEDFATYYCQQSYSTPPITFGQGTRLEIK
notes: as for B1
B7: H4H18449P2 (antibody, human IgG4, V domains shown)
VH: EVQLVESGGGLVQPGGSLRLSCVASGFTFNKYDMHWVRQTTGKGLEWVSGIDTDGDTYYPGSVKGRFTISRENAENSLYLQMNGLRVGDTAVYYCARWPWSGFYGAFDIWGQGTMVTVSS
VL: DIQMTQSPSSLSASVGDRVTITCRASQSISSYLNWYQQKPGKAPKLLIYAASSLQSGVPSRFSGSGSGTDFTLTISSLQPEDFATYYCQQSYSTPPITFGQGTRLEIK
notes: as for B1
B8: H4H16650P2 (antibody, human IgG4, V domains shown)
VH: QVQLVESGGGVVQPGKSLRLSCVASGFTFSSDAMYWVRQAPGKGLEWVAVIYYDGNYQYYEDSVKGRFTISRDNSQNTLDLQMNSLRVDDTAVYFCARLNWDYWYLDLWGRGTLVTVSS
VL: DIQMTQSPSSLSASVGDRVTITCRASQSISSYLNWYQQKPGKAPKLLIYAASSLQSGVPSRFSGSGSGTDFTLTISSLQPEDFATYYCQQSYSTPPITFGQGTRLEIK
notes: as for B1
B9: H4H18446P2 (antibody, human IgG4, V domains shown)
VH: EVQLVESGGGLVQPGGSLRLSCAASGFTFSNYGMTWVRQAPGKGLEWVSAITGGGGSTYYSNSVKGRFTISRDNSKNTVYLRMNSVRAEDTAVYYCAKYKWNFVDDWGQGTTVTVSS
VL: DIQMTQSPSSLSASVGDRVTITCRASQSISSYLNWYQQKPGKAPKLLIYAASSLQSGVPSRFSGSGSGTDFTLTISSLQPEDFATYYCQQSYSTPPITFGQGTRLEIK
notes: as for B1

Legend:
[1] = target: T2, extracellular domain portion of LEPR protein expressed with a C-terminal human Fc tag (hLEPR.hFc) (human); experiment: blocking ELISA: 10 nM hLEPR.hFc to coated hLeptin, 500 nM Ab
T2 construct: also called dimeric human LEPR
Description: These antibody-protein or protein-protein complexes were then incubated for 1.5 hour at room temperature (RT). […] Samples were developed with a TMB solution (BD Biosciences, #555214; substrate A and B mixed at 1:1 ratio as per manufacturer's instructions) to produce a colorimetric reaction and then neutralized with 1M sulfuric acid before measuring absorbance at 450 nm on a Victor X5 plate reader.
Data analysis was performed using a sigmoidal dose-response model within Prism™ software (GraphPad). […] In the calculation, binding signal of 10 nM of hLEPR.hFc without the presence of the antibody was referenced as 100% binding or 0% blocking; and the baseline signal of buffer alone without the presence of hLEPR.hFc was referenced as 0% binding or 100% blocking.

[2] = target: mouse LEPR extracellular domain expressed with a C-terminal myc-myc-hexahistidine tag (mLEPR.mmh) (mouse, UniProt P48356 22-839); experiment: SPR, captured mAb, 25C and 37C
Chain of mouse LEPR extracellular domain expressed with a C-terminal myc-myc-hexahistidine tag (mLEPR.mmh) (P48356 other isoform, or with tags, fused parts or gaps): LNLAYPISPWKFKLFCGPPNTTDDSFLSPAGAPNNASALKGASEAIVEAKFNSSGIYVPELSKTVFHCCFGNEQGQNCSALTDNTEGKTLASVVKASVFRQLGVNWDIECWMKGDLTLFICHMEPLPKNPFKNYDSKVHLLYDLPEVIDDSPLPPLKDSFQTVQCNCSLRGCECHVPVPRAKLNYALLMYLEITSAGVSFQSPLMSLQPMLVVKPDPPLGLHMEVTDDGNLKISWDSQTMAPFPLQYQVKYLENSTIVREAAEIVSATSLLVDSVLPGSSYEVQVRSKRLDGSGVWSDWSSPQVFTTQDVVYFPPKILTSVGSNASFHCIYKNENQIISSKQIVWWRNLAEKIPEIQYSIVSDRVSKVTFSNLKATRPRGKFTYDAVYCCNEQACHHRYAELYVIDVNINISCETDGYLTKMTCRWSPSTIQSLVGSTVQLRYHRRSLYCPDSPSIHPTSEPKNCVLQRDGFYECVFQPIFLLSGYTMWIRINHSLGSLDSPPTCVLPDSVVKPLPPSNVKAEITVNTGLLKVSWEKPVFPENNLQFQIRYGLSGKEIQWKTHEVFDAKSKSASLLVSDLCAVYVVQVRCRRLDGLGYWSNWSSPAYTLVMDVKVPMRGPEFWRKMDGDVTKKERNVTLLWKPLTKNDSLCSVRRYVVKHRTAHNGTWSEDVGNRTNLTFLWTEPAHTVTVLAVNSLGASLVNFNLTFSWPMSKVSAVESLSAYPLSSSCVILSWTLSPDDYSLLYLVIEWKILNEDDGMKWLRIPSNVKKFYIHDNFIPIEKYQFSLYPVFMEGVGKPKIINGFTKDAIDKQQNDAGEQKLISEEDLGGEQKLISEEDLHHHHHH

[3] = target: rat LEPR extracellular domain expressed with a C-terminal myc-myc-hexahistidine tag (rLEPR.mmh) (rat, UniProt Q62959 22-839); experiment: SPR, captured mAb, 25C and 37C
Chain of rat LEPR extracellular domain expressed with a C-terminal myc-myc-hexahistidine tag (rLEPR.mmh) (Q62959 other isoform, or with tags, fused parts or gaps): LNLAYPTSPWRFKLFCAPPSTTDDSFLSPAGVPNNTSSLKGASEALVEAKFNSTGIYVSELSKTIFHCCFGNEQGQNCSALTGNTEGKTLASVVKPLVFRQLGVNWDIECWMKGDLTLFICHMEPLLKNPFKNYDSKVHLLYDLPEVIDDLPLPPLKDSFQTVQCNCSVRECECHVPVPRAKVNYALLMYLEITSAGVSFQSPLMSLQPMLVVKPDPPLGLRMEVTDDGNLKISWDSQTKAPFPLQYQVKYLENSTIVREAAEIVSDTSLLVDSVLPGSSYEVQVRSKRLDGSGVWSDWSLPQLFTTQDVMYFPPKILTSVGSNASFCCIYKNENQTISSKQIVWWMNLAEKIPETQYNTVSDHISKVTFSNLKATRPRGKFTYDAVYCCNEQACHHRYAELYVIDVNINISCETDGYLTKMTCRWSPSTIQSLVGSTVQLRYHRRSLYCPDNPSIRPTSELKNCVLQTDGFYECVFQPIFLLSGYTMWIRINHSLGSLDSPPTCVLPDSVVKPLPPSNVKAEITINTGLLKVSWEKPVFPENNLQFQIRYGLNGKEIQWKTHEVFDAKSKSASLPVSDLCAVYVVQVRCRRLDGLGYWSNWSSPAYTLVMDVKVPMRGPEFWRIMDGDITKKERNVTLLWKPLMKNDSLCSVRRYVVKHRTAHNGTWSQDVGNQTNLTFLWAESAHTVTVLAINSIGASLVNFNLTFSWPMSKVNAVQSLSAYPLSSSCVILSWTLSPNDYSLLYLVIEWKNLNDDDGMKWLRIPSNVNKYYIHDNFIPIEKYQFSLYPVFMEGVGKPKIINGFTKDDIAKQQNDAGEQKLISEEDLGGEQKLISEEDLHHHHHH

[4] = target: T1, full length human LEPR on cells; experiment: cell-based or functional assay
[5] = target: T3, human LEPR extracellular domain expressed with a C-terminal myc-myc-hexahistidine tag (hLEPR.mmh) (human, UniProt P48357 22-839); experiment: Luminex, myc-captured full length extracellular domain
T3 construct: also called human LEPR-MMH; monomeric human LEPR
Description: Aliquots of microspheres with immobilized anti-myc monoclonal antibodies, prepared as described above, were added individually to 1 mL of the each of these protein supernatants. The microspheres were gently mixed, incubated for two hours at 25° C., washed twice with 1 mL of DBPS, centrifuged to remove the supernatant and finally resuspended in 1 mL of DPBS buffer. Forty-eight μL of anti-myc IgG coupled microspheres from individual reactions with full length human LEPR and with each of the human LEPR domain proteins were withdrawn and mixed together in 3.6 mL of PBS+20 mg/mL BSA+0.05% sodium azide (blocking buffer).
From this mixed pool, 75 μL of microspheres were plated per well on a 96 well filter plate (Millipore, Cat. No: MSBVN1250) and mixed with 25 μL of individual anti-human LEPR monoclonal antibodies (0.5 or 5 µg/mL), incubated for two hours at 25° C. and then washed twice with 200 μL of DPBS with 0.05% Tween 20 (washing buffer). […] After 30 minutes, the samples were washed twice with 200 μL of washing buffer and resuspended in 150 μL of wash buffer. The Median Fluorescence intensity (MFI) of the microspheres was measured in a Luminex Analyzer.

| Binder | % blockade [1] [%] | binding result [2] | binding result [3] | % activation, with 200 pM human Leptin [4] [%] | % activation, without human Leptin [4] [%] | EC50, STAT3-Luc reporter, with 200 pM human Leptin [4] [M] | EC50, STAT3-Luc reporter, without human Leptin [4] [nM] | MFI [5] [MFI] |
| --- | --- | --- | --- | --- | --- | --- | --- | --- |
| B1 | 28 | no binding | no binding | 97 | 5 | 4.1e-10 | 11.9 | 6570 |
| B2 | 15 | no binding | no binding | 76 | 5 | 2.02e-11 | 1.49 | 6250 |
| B3 | 7 | no binding | no binding | 88 | 65 | 7.37e-11 | 0.0862 | 7510 |
| B4 | 6 | no binding | no binding | 76 | 66 | 2.57e-10 | 0.207 | 4700 |
| B5 | 16 | no binding | no binding | 87 | 5 | 5.23e-10 | 0.153 | 4890 |
| B6 | 9 | no binding | no binding | 76 | 68 | 1.91e-10 | 0.187 | 3300 |
| B7 | 8 | no binding | no binding | 66 | 13 | 5.23e-11 | 0.212 | 7980 |
| B8 | -7 | no binding | no binding | 88 | 68 | 5.19e-11 | 0.0619 | 7600 |
| B9 | -5 | no binding | no binding | 68 | 6 | 3.42e-11 | 0.373 | 10500 |
